# Laboratory results reported in the nanobody polyreactivity screen of Harvey et al. (2022).
# Experiment: yeast display, Sf9 membrane polyspecificity reagent, FACS + sequencing; frameworks hold sequencing errors
# Method in brief: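 After 36–48 hours of galactose induction, yeast (Saccharomyces cerevisiae BJ5465) displaying a synthetic nanobody library were stained at 4 °C for 1 hour with 10% biotinylated, detergent-solubilized Sf9 membrane reagent. Streptavidin microbeads enriched the stained cells before FACS sorting into low and high (top ~1%) gates on anti-HA and streptavidin fluorescence. Each clone's polyreactivity label reflects its gate of origin.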
row,Sequence,polyreactivity (PSR sort gate)
1,QVQLVESGGGLVQAGGSLRLSCAASGSIFRFYAMGWYRQAPGKERELVADISWRGGSTYYADSVTGRFTISRDNAKNTVYLQMNSLKPEDTAVYYCAADGPGKYDYWGQGTQVTVSS,high polyreactivity
2,QVQLVESGGGLVQAGGSLRLSCAASGSIFRFYAMGWYRQATGKEREFVASITGTGGSTYYADSVKGRFTISRDNAKNTVYLQMNSLKPEDTAVYYCNARPYGWYDTYRLYGYWGQGTQVTVSS,high polyreactivity
3,QVQLVESGGGLVQAGGSLRLSCAASGSIFRGKAMGWSRQAPGKERELVAGINRAGSTKYADSVKGRFTISRDNAKNTVYLQMNSLKPEDTAVYYCAAVRYERGLWSDYWGLGTQVTVSS,high polyreactivity
4,QVQLVESGGGLVQAGGSLRLSCAASGSIFRGNAMGWYIQAPGKERELVAGINRAGSTKYADSVKGRFTISRDNAKNTVYLQMNSLKPEDTAVYYCAAVRYVRCLWSDYWGQGTKVTVSS,high polyreactivity
5,QVQLVESGGGLVQAGGSLRLSCAASGSIFRGNAMGWYRQAPGKERELVAAISKSGGSTYYADSVKGRFTISRDNAKNTVYLQMNSLKPEDTAVYYRAARTTYLYGMYYWGQGTQVTVSS,low polyreactivity
6,QVQLVESGGGLVQAGGSLRLSCAASGSIFRGNAMGWYRQAPGKEREMVAAISVSGSRTYYADSVKGRFTISRDNAKNTVYLQMNSLIPEDTAVYYCNAVLRVKGSGDFDYWGEGTQVTVSS,high polyreactivity
7,QVQLVESGGGLVQAGGSLRLSCAASGSIFRGYAMGWYRQAPGKERELVAAINWSGSSTYYADSVKGRFTISRDNAKNTVYLQMYSMKPEDSAVYYCALVYYNRNLGGDYWGQGTQVTVSS,low polyreactivity
8,QVQLVESGGGLVQAGGSLRLSCAASGSIFRGYAMGWYRQATGKERELVATIDSSAGSTYYADSVKGRFTISRDNAKNTVYLQMHSLKPEDTAVYYCATDPYGYYYSGFDYWGQGTQVTVSS,low polyreactivity
9,QVQLVESGGGLVQAGGSLRLSCAASGSIFRGYAMGWYRQEPEKERELVAAMSRRGGSTYYADSVKGRFSISRDNAKNTVYLQMNSLKPEDTAVYYCAKDGTGAGNYDYWGQGTQVTVSS,low polyreactivity
10,QVQLVESGGGLVQAGGSLRLSCAASGSIFRGYTMGWYRQAPGKERELVAAISRSGGSTYYADSVKGRFTISRDNAKNTVYIQMNSLKPEDTAVYYCNVVYFVTTSPGYDYWGQGTQVTVSS,high polyreactivity
11,QVQLVESGGGLVQAGGSLRLSCAASGSIFRHNAMGWYRQAPGKERELVAAITSRGGSTYYADSVKGRFTISRDNAKNTVYLQMNSLKPEDTAVYYFAADYSSLSWGYDYWGQGTQVTVSS,high polyreactivity
12,QVQLVESGGGLVQAGGSLRLSCAASGSIFRHYAMGWYSQAPGKERELVASITLRGGSTYYADSVKGPFTISRDNAKNTVYLQMNSLKPEDTAVYYCAKRAGPEYDYWGQGTQVTVSS,low polyreactivity
13,QVQLVESGGGLVQAGGSLRLSCAASGSIFRHYTMGWYRQAPGIERELVAVISSGGNTNYADSVKGRFTISRDNAKNTVYLQMNSLKPEDTAVDDCAARSHRYYSRVNYWGQGTQVTVSS,high polyreactivity
14,QVQLVESGGGLVQAGGSLRLSCAASGSIFRINAMGWYRQAPGKEREFVAAIRGSGGRTYYADSVKGRFTISRDNAKNTVYLQMNSLKPEDTAVYYCAADFSYRYFQRTSWPFDYWGQGTQVTVSS,high polyreactivity
15,QVQLVESGGGLVQAGGSLRLSCAASGSIFRINAMGWYRQAPGKERELVAAISTSGGTTYYADSVKGRFTISRDNAKNTVYLQMNSLKPEDTAVYYCAARRVTSPFGSDSWGQGTQVTVSS,low polyreactivity
16,QVQLVESGGGLVQAGGSLRLSCAASGSIFRIYAMGWYRQAPGKERELVAAISTSGVRTYYADSVKGRFTISRDNAKNTVYLQMNSLKPEDTAVYYCNARYVRPRGTGDFDYWGQGTQVTVSS,high polyreactivity
17,QVQLVESGGGLVQAGGSLRLSCAASGSIFRIYAMGWYRQAPGKERELVAAITKRGGSTYYADSVKGRFTISRDNAKNTVYLQMNSLKPEDTAVYYCAARFYSGYSYDYWGHGTQVTVSS,high polyreactivity
18,QVQLVESGGGLVQAGGSLRLSCAASGSIFRKKAMGWYRQAPGKERELVAAITGTGRTTYADSVKGRFTISRDNAKNTVYLQMNSLKPEDTAVYYCAAEYYYRYSYTNEGDYWGQGTQVTVSS,low polyreactivity
19,QVQLVESGGGLVQAGGSLRLSCAASGSIFRKNAMGWSRPAPGKERELVAVSTSSGASTYYADSVKGRFTISRDNAKNTVYVQMNSLKPEETAVYYCNAPSFYTKKMYSWGQGTQVTVSS,high polyreactivity
20,QVQLVESGGGLVQAGGSLRLSCAASGSIFRKNAMGWYRQAPGKERELVAAISSGGGGTYYADSVKGRFTISRDNAKNTVYLQMNSLKPEDTAVYYCNKREGKGGNTKYDYWGLGTQVTVSS,low polyreactivity
21,QVQLVESGGGLVQAGGSLRLSCAASGSIFRKNAMGWYRQAPGKERELVATISGGGSTTYADSVKGRFTISRDNAKNTVYLQMNSLKPEDTAVYYCAARSTWFQIRYGYWGQGTQVTVSS,high polyreactivity
22,QVQLVESGGGLVQAGGSLRLSCAASGSIFRKYAMGWYRQATGKERELVAVITTDGSTNYADSVKGRFTISRDNAKNTVYLQMNSLKPEDTAVYYCNAVRSSIGTDNDYWGQGTQVTVSS,low polyreactivity

row,Sequence,polyreactivity (PSR sort gate)
1,QVQLVESGGGLVQAGGSLRLSCAASGSIFRLYAKGSYRQAPGKERELVARITTGGSTNYADSVKGRFTISRDNANNTVYLQMNSLKPEDTAVYYSWGVPRRYYYWGQGTQVTVSS,high polyreactivity
2,QVQLVESGGGLVQAGGSLRLSCAASGSIFRLYAKGWYIQAPGKERELVAAISSGGSTYYADSVKGRFTISRDNAKNTVYLQMNSLKPEDTAVYYCNTAWTYWRYDYWGQGTQVTVSS,high polyreactivity
3,QVQLVESGGGLVQAGGSLRLSCAASGSIFRLYVMGWYRQAPGKERELVAAITLSGGSTYYADSVKGRFTISRDNAENTVYLQMNSLKPEDTAVYYCNRVTLYDITFDYWGQGTQVTVSS,low polyreactivity
4,QVQLVESGGGLVQAGGSLRLSCAASGSIFRNNTMGWYRQAPGKERELVAAISGRGTRTSYADSVKGRFTISRDNAKNTVYLQMNSLKPEDTAVYYCAAVYYWRPGWYVRFDYWGQGTQVTVSS,low polyreactivity
5,QVQLVESGGGLVQAGGSLRLSCAASGSIFRNYAMGWYRQAPGKERELVAAISRSGSSTFYADSVKGRFTISRDNAKNTVYLQMNSLKPEDTAVYYCAAVDYYTLTGYRYYWGQGTQVTVSS,high polyreactivity
6,QVQLVESGGGLVQAGGSLRLSCAASGSIFRNYAMGWYRQAPGKERELVASIRYSGGRTNYADSVKGRFTISRDNAKNTVYLQMNSLKPEDTAVYYCAADPGYGWQRAYYYWGQGTQVTVSS,high polyreactivity
7,QVQLVESGGGLVQAGGSLRLSCAASGSIFRPNAMGWNRQAPGKERELVAAINTSDDSTYYADSVKGRFTISRDNAKNTVYLQMNSLKPEDSAVYYCAADPRTYWTHSYYWGQGTQVTVSS,low polyreactivity
8,QVQLVESGGGLVQAGGSLRLSCAASGSIFRPNAMRWYRQAPGKERELVAAISSGDSTNYADSVKGRFTISRDNAKNTVYLLMNSLKAEDTAVYYCNTDKYSESYRSYEYWGQGTQVTVSS,low polyreactivity
9,QVQLVESGGGLVQAGGSLRLSCAASGSIFRPNTMGWYRQATGKERELVADIRYRGGGTYYADSVKGRFTITRDNATNTVYLQMNSLKPEDTAVYYCAKASAQWVQFDFWGQGNQVTVSS,high polyreactivity
10,QVQLVESGGGLVQAGGSLRLSCAASGSIFRPYAMGWYRQAPGKERELVAGITFIGGSTYYADSVKGRFTISRDNAKNTVYLQRNSLKPEDTAVYYCNADVAPGIFYGYDSWGQGTQVTVSS,low polyreactivity
11,QVQLVESGGGLVQAGGSLRLSCAASGSIFRPYAMGWYRQAPGKERVLVAAISRRGGSTYYADSVKGRFTISRDNAKNTVYLQMNSLKPEDTAVYYCAADHSRPSPYGYGYWGQGTQVTVSS,high polyreactivity
12,QVQLVESGGGLVQAGGSLRLSCAASGSIFRRNAMGWYRQAPGKERELVAAISSIGSSTYYADSVKGRFTISRDNAKNTVYLQMNSLKPEDTAVYYCAALYVQGTHTYGYWGQGTQVTVSS,high polyreactivity
13,QVQLVESGGGLVQAGGSLRLSCAASGSIFRRNAMGWYRQAPGKERELVAAITWRGDRTYYADSVKGRFTISRDNAKNTVYLQMNSLKPEDTAVYYCNKLGRIQYDYWGQGTQVTVSS,high polyreactivity
14,QVQLVESGGGLVQAGGSLRLSCAASGSIFRRYAMGWYRQAPGKEREFVAAITRSGGGTYYADSVKGRFTISRDNAKNTVYLQMNSLKPEDTAVYYCAADAPNFGLYRDKDYDYWGQGTQVTVSS,high polyreactivity
15,QVQLVESGGGLVQAGGSLRLSCAASGSIFRRYAMGWYRQAPGKERELVAAISRSGSSTYADSVKGRFTISRDNEKNTVYLQMNSLKPEDTEVYYCNRVRLNTEGFDYWGQGTQVTVSS,low polyreactivity
16,QVQLVESGGGLVQAGGSLRLSCAASGSIFRRYDMGWYRQAPGTERELVAAISSSGGSTYYADSVKGRFTISRDNAKNTVYLQMNILKPEDTAVYYCNTASNRYPGWRAEFDYWGQGTQVTVSS,low polyreactivity
17,QVQLVESGGGLVQAGGSLRLSCAASGSIFRSNAMGWYRPAPGKERELVAAISRRGGSTYYADSVKGRFTISRDNAKNPVYLQMNSLKPEDTAVYYCAAPTIVSGHDSWGQGTQVTVSS,high polyreactivity
18,QVQLVESGGGLVQAGGSLRLSCAASGSIFRSNAMGWYRQAPGKERELVAAITSGTRKYYADSVKGRFTISRDNAKNTVYLQMNSLKPEDTAVYYCATKGSKYDRGYWGQGTQVTVSS,high polyreactivity
19,QVQLVESGGGLVQAGGSLRLSCAASGSIFRSNAMGWYRQPPGKERELVAAITLSGGSTYYADSVKVRFTISRDNAKNTVYLQMNSLKPEDTAVYYCAAAYYLFSIHDYWGQGNQVTVSS,low polyreactivity
20,QVQLVESGGGLVQAGGSLRLSCAASGSIFRSNTMGWSRQAPGKERELVARISSTGGSTYYADSVKGRFTISRDNAKKTVYLQLNSLKPEDTAVYYCNKVRGINHLYDMNYWGQGTQVTVSS,high polyreactivity
21,QVQLVESGGGLVQAGGSLRLSCAASGSIFRSYALGWYRQSPGKERELVASISRRGGSTYYADSVKGRFTISRDNAKNTVYLQMNSLKPEDTAVYYCAAVRYNSRVSTTPSEMYYWGQGTQVTVSS,low polyreactivity
